From article PMC2713256, “Tousled kinase TLK1B counteracts the effect of Asf1 in inhibition of histone H3–H4 tetramer formation” (BMC Research Notes, 2009) come the findings set out here.

In assay [1] the target is histone H3–H4 dimer (bovine | human) (UniProt P68432). The experiment in a line: cross-linking; combinations of H3, H4, Asf1 and TLK1B in equivalent amounts, no ATP, 5 min at room temperature in 50 mM phosphate buffer pH 7.2; 3 mM formaldehyde 5 min on ice, stopped with 50 mM glycine; SDS-PAGE, blots for H3, H4, Asf1 and TLK1B.
Assay [2] has as its target T1, recombinant human TLK1B (GST-TLK1B) (human, UniProt Q9UKI8-3 1-549).
T1 construct: Named GST-TLK1B in the pull-downs and only TLK1B in the cross-linking reactions; also called Tousled kinase TLK1B; source: recombinant, prepared as described previously [10]
T1 sequence (looked up): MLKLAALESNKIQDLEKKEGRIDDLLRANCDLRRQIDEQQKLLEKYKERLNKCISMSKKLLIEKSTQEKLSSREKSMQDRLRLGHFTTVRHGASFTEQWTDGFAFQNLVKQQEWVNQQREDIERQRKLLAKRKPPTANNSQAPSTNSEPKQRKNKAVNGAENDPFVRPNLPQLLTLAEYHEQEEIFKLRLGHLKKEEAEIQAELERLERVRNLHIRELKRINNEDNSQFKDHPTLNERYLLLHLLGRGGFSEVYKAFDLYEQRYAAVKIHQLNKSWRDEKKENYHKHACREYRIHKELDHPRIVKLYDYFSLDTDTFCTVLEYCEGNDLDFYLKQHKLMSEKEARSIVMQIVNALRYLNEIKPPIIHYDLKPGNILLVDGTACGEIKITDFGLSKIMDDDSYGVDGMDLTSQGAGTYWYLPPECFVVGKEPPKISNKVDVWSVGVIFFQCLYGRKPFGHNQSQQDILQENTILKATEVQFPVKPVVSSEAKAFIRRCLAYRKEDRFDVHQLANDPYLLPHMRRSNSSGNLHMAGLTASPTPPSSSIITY
The experiment in a line: pull-down; GST-TLK1B (5 ug with varying amounts of Asf1, or 1 ug each with and without 10 or 100 uM ATP and 1 mM MgCl2), 10 min at room temperature, adsorbed on GSH-Sepharose; bound and unbound fractions on 10% SDS-PAGE stained with Coomassie blue. The following applies: both partners purified.

B1: recombinant human Asf1B (natural protein, UniProt Q9NVP2 1-202, looked up)
chain: MAKVSVLNVAVLENPSPFHSPFRFEISFECSEALADDLEWKIIYVGSAESEEFDQILDSVLVGPVPAGRHMFVFQADAPNPSLIPETDAVGVTVVLITCTYHGQEFIRVGYYVNNEYLNPELRENPPMKPDFSQLQRNILASNPRVTRFHINWDNNMDRLEAIETQDPSLGCGLPLNCTPIKGLGLPGCIPGLLPENSMDCI
notes: Asf1B, histone H3-H4 chaperone, human, recombinant; source: recombinant, prepared as described previously [10]
In the case of B1, in assay [1], the percent inhibition of H3–H4 tetramer formation came out at 57%. Besides, the “stoichiometry N” value in assay [2] came out at 1.
